Where a chain is given by its changes, count along the chain named.
T1: DR3 expressed on the cell surface (DR3 stable cell line) (human, UniProt Q93038 25-417)
T1 construct: whole, on cells; also called DR3 natural form; human DR3
T1 sequence (looked up): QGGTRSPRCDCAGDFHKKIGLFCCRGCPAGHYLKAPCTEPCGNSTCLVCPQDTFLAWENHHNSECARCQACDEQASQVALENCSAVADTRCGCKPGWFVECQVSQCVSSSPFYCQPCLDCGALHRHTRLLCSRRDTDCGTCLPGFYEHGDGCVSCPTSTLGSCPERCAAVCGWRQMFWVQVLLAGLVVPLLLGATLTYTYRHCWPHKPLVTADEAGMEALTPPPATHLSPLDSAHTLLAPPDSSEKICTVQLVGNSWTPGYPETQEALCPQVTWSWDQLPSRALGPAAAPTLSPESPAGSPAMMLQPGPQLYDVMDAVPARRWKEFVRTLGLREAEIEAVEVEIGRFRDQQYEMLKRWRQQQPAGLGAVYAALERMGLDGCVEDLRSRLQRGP

T2: TL1A (tumor necrosis factor-like ligand 1A), His tag (human, UniProt O95150 72-251)
T2 construct: also called TL1A His tag; TL1A-His tag; not shown: His tag
T2 sequence (looked up): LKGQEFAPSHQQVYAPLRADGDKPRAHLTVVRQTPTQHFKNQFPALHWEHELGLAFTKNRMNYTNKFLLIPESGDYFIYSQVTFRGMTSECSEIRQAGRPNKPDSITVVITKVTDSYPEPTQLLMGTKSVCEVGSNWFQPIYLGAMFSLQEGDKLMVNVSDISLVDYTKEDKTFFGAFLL

B1: anti-DR3 3-18 monoclonal antibody (antibody, V domains shown)
VH: QVQLQQSGPGLVKPSETLSLTCTVSGGSISSSSYYWGWIRQPPGKGLEWIGSIYYSGSTYYNPSLKSRVTISVDTSKNQFSLKLSSVTAADTAVYYCARQVSGPLDYWGQGTLVTVS
VL: DIVMTQSPSSLSASVGDRVTITCRASQGIRNDLGWYQQKPGKAPKLLIYAASSLQSGVPSRFSGSGSGTDFTLTISSLQPEDFATYYCLQDYNYPRTFGQGTKVEIK
notes: Human IgG; also called 3-18 mAb; clone 3-18
B2: anti-DR3 scFv clone 3-18 (phage display) (scFv, V domains shown)
VH: B1 VH
VL: B1 VL
B3: anti-DR3 scFv clone 2-10 (phage display) (scFv, V domains shown)
VH: QVQLVQSGAEVKKPGASVKVSCKASGYTFTSYGISWVRQAPGQGLEWMGWISAYNGNTNYAQKLQGRVTMTTDTSTSTAYMELRSLRSDDTAVYYCASGPDYGMLDYWGQGTLVTVS
VL: EIVMTQSPSSLPASVGDRVTITCQASQDISNYLNWYQQKPGKAPKLLIYDASNLETGVPSRFSGSGSGTDFTFTISSPQPEDIATYYCQQYDNLPLTFGGGTKVEIK
B4: anti-DR3 2-10 monoclonal antibody (antibody, V domains shown)
VH: B3 VH
VL: B3 VL
notes: Human IgG (detected with anti-human IgG Fc); also called 2-10 mAb; clone 2-10
B5: anti-DR3 scFv clone 6-15 (phage display) (scFv, V domains shown)
VH: QVQLVQSGGGLVQPGGSLRLSCAASGFTFSSYSMNWVRQAPGKGLEWVSYISSSSSTIYYADSVKGRFTISRDNAKNSLYLQMNSLRAEDTAVYYCARWDGYCSGGSCYSGMDYWGQGTLVTVS
VL: B3 VL with E1D, V3E, P12S, R18K, F71S, P78L
B6: anti-DR3 6-15 monoclonal antibody (antibody, V domains shown)
VH: B5 VH
VL: B3 VL with E1D, V3E, P12S, R18K, F71S, P78L
notes: Human IgG; also called 6-15 mAb; clone 6-15
B7: recombinant DR3 (DR3-His tag) (receptor, human, UniProt Q93038 25-199, looked up)
chain: QGGTRSPRCDCAGDFHKKIGLFCCRGCPAGHYLKAPCTEPCGNSTCLVCPQDTFLAWENHHNSECARCQACDEQASQVALENCSAVADTRCGCKPGWFVECQVSQCVSSSPFYCQPCLDCGALHRHTRLLCSRRDTDCGTCLPGFYEHGDGCVSCPTSTLGSCPERCAAVCGWRQ
notes: it is treated as the same reagent; also called rDR3; death receptor 3; not shown: His tag
B8: anti-DR3 4-4 monoclonal antibody (subclass not stated) (antibody, V domains shown)
VH: EVQLVESGGGLVKPGGSLRLSCAASGFTFSDYYMSWIRQAPGKGLEWVSYISSSSSYTNYADSVKGRFTISRDNAKNSLYLQMNSLRAEDTAVYYCASNVDTAMVGAFDIWGQGTLVTVS
VL: DIEMTQSPSSVSASVGDTVTITCRASQHISNWLAWYQQKPGQAPKFLIYTASNLQSGVPSRFSGSGYGTDFTLTISGLQPEDFATYYCQQADSFPLTFGGGTKVDIK
notes: also called 4-4 mAb; clone 4-4
B9: anti-DR3 scFv clone 4-4 (phage display) (scFv, V domains shown)
VH: B8 VH
VL: B8 VL
B10: clone 4-4 IgG1 monoclonal antibody (antibody, V domains shown)
VH: B8 VH
VL: B8 VL
notes: IgG1 subclass; also called anti-DR3 4-4 IgG1 antibody
B11: clone 4-4 IgG2 monoclonal antibody (antibody, V domains shown)
VH: B8 VH
VL: B8 VL
notes: IgG2 subclass
B12: anti-DR3 4-4 IgG4 monoclonal antibody (antibody, V domains shown)
VH: EVQLVESGGGLVKPGGSLRLSCAASGFTFSDYYMSWIRQAPGKGLEWVSYISSSSSYTNYADSVKGRFTISRDNAKNSLYLQMNSLRAEDTAVYYCASNVDTAMVGAFDIWGQGTLVTVSS
VL: DIEMTQSPSSVSASVGDTVTITCRASQHISNWLAWYQQKPGQAPKFLIYTASNLQSGVPSRFSGSGYGTDFTLTISGLQPEDFATYYCQQADSFPLTFGGGTKVDIKR
notes: also called clone 4-4 IgG4; human 4-4 IgG4P mAb

Key:
[1] = target: B7; test: SPR, Biacore T100, DR3-His tag immobilized on CM5 chip
Protocol: (§1) SPR was performed using monoclonal antibodies from the clones selected in Example 1. After immobilizing 10 μg/ml DR3-His tag on a CM5 chip, the binding specificity and binding strength were measured using Biacore T100 under the conditions of a contact time of 30 sec and a flow rate of […].

[2] = target: B7; test: phage ELISA of single scFv clones on recombinant DR3
[3] = target: B7; test: ELISA, DR3-His tag on Ni plate, anti-human IgG Fc HRP
Protocol: The functionally best subclass of the anti-DR3 4-4 antibody identified as the best in Example 2 was analyzed. For this purpose, as anti-DR3 4-4 antibodies, clone 4-4 IgG1, clone 4-4 IgG2, and clone 4-4 IgG4 monoclonal antibodies were prepared according to IgG subclass, and ELISA was performed to compare the binding affinity to DR3. Specifically, 0.4 μg/ml DR3-His tag was put into and mixed with PBS, and then a Ni plate was coated with a total of 50 μl of the mixed solution. Thereafter, to prevent non-specific binding, the Ni plate was mixed with 200 μl of PBS consisting of 5% FBS and incubated at room temperature for 30 minutes, and incubated for 30 minutes by titrating the monoclonal antibody. The degree of binding between the coated DR3 and the monoclonal antibody was detected with anti-human IgG Fc HRP. The plate was washed five times with 250 μl of 0.1% Tween 20 at each step.

[4] = target: T1, DR3 expressed on the cell surface (DR3 …); test: FACS on DR3 stable cell line, 2 ug/ml antibody, anti-human IgG PE
Protocol: FACS was performed using monoclonal antibodies from the clones selected in Example 1. Specifically, a DR3 stable cell line at a concentration of 0.2×10⁶ was mixed with 2 μg/ml monoclonal antibody and incubated at 4° C. for 30 minutes, and the degree of binding between the DR3 stable cell line and the monoclonal antibody was confirmed by FACS analysis using anti-human IgG PE. For each step, cells were washed once with 200 μl of PBS. Isotype control was used as a negative control.

[5] = target: T2, TL1A (tumor necrosis factor-like ligand …); test: SPR, Biacore T100, DR3-His tag immobilized on CM5 chip; TL1A as reference
Protocol: as §1

Binder | binding result [2] | binding result [3] | further results
B1 |  |  | binding result [1]: binds
B2 | binds |  | 
B3 | binds |  | 
B4 |  |  | binding result [1]: binds
B5 | binds |  | 
B6 |  | binds | binding result [4]: binds
B7 |  |  | binding result [5]: binds
B8 |  |  | binding result [1]: binds; binding result [4]: binds
B9 | binds |  | 
B10 |  | binds | 
B11 |  | binds | 
B12 |  | binds | 

Source: patent US20260159596A1 (SELECXINE, published 2026)
